Data on one substance can be found in patent publication US20220349880.

The subject of series [1] is Peptide H-3: H2N-(CH2)4-CO-Pro-Leu-Arg-Phe-Gly-Ala-NH-CH2-Fc.
Series [2] has as its system Peptide H-16: H2N-(CH2)4-CO-Pro-Leu-Ala-Gly-Val-Ala-NH-CH2-Fc.
The subject of series [3] is Peptide H-7: H2N-(CH2)4-CO-Pro-Leu-Gly-Gly-Val-Ala-NHCH2-Fc.
Series [4] concerns Peptide H-2: H2N-(CH2)4-CO-Pro-Thr-Arg-Phe-Val-Gly-NHCH2-Fc.
Series [5] concerns Peptide H-1: H2N-(CH2)4-CO-Lys-Val-Arg-Phe-Val-Gly-NHCH2-Fc.
For series [6], the system named is Peptide H-6: H2N-(CH2)4-CO-Pro-Leu-Gly-Phe-Val-Ala-NHCH2-Fc.
The test system of series [7] is Peptide H-5: H2N-(CH2)4-CO-Ala-Pro-Leu-Arg-Phe-Gly-Ala-Ala-NHCH2-Fc.
Series [8] relates to Peptide H-4: H2N-(CH2)4-CO-Pro-Val-Gly-Phe-Val-Ala-NHCH2-Fc.
Series [9] concerns Peptide H-15: H2N-(CH2)4-CO-Pro-Leu-Ala-Phe-Val-Ala-NH-CH2-Fc.

“recombinant human cathepsin B (rhCB), activated by incubation in 25 mM MES buffer (pH 5.0) containing 5 mM DTT for 15 min”: the “proteolysis rate (electrochemical measurements, fluorogenic assays and HPLC-MS analysis)” value is “three peptides H-3, H-15 and H-16 were selected for this study due to the higher proteolysis rates by cathepsin B compared to other candidates” in series [1]; “three peptides H-3, H-15 and H-16 were selected for this study due to the higher proteolysis rates by cathepsin B compared to other candidates” in [2]; “three peptides H-3, H-15 and H-16 were selected for this study due to the higher proteolysis rates by cathepsin B compared to other candidates” in series [9]. The “proteolysis rate (electrochemical measurements, fluorogenic assays and HPLC-MS analysis); one of the 'other candidates' with a lower rate” value was “three peptides H-3, H-15 and H-16 were selected for this study due to the higher proteolysis rates by cathepsin B compared to other candidates” in series [3]; “three peptides H-3, H-15 and H-16 were selected for this study due to the higher proteolysis rates by cathepsin B compared to other candidates” in series [4]; “three peptides H-3, H-15 and H-16 were selected for this study due to the higher proteolysis rates by cathepsin B compared to other candidates” in series [5]; “three peptides H-3, H-15 and H-16 were selected for this study due to the higher proteolysis rates by cathepsin B compared to other candidates” in [6]; “three peptides H-3, H-15 and H-16 were selected for this study due to the higher proteolysis rates by cathepsin B compared to other candidates” in series [7]; “three peptides H-3, H-15 and H-16 were selected for this study due to the higher proteolysis rates by cathepsin B compared to other candidates” in [8]. Besides, the “proteolytic activity among about 30 synthesized peptides” value in series [9] is listed as “has shown the highest proteolytic activity by cathepsin B”.
